Experiment [1] concerns the target T1, rat µ opioid receptor (rat, UniProt P33535 1-398).
T1 construct: whole, on cells; membrane preparations of the transfected cells were used; also called rMOR; MOR
The experiment is described as follows: competition vs [3H]DAMGO, rMOR cell membranes.

In experiment [2] the target is T1, rat µ opioid receptor. The experiment is described as follows: cell-based or functional assay.
In experiment [3] the target is T2, human NK1 receptor (human, UniProt P25103 1-407).
T2 construct: whole, on cells; membrane preparations of the transfected cells were used; also called hNK1; human neurokinin-1 receptor
As to the kind of experiment: competition vs [3H]Substance P, hNK1 CHO cell membranes.
T2 sequence (P25103 whole entry): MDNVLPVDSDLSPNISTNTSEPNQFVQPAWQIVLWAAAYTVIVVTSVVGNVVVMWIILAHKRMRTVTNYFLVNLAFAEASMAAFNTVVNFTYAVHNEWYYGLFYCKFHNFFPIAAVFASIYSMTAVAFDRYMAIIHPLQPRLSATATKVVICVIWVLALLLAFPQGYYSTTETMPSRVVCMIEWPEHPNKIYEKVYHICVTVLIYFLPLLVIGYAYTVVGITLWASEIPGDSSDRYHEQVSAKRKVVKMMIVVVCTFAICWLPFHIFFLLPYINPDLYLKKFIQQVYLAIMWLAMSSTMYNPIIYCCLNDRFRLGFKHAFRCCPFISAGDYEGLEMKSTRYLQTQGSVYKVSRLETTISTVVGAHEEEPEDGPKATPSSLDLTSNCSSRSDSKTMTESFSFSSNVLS

Experiment [4] concerns the target T3, guinea pig NK1 receptor (guinea pig, UniProt P30547 1-407). The experiment is described as follows: cell-based or functional assay.
T3 sequence (P30547 whole entry): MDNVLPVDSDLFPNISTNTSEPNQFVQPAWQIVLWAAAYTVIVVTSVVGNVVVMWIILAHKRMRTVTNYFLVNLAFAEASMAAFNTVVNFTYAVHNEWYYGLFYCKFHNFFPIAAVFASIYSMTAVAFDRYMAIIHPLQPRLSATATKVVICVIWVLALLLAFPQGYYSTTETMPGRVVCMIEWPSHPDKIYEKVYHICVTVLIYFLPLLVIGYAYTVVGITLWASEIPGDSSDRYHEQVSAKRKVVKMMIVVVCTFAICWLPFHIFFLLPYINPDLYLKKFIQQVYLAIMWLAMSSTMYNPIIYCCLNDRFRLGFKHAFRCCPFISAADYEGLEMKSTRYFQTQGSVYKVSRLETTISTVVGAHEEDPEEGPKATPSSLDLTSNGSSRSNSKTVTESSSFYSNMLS
Experiment [5] deals with T4, µ opioid receptor of the guinea pig isolated ileum (guinea pig, UniProt P97266 1-98). As to the kind of experiment: cell-based or functional assay.
T4 sequence (P97266 whole entry): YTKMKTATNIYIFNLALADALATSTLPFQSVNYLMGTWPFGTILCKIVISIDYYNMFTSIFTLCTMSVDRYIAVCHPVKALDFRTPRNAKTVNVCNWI
Experiment [6] deals with T3, guinea pig NK1 receptor. As to the kind of experiment: cell-based or functional assay. The source holds these as a separate data set.
In experiment [7] the target is T4, µ opioid receptor of the guinea pig …. As to the kind of experiment: cell-based or functional assay. This is another data set of the same source.
The target of experiment [8] is T5, rat NK1 receptor (rat, UniProt P14600 1-407).
T5 construct: whole, on cells; membrane preparations of the transfected cells were used; also called rNK1; rNK-1
As to the kind of experiment: competition vs [3H]Substance P, rNK1 CHO cell membranes.
T5 sequence (P14600 whole entry): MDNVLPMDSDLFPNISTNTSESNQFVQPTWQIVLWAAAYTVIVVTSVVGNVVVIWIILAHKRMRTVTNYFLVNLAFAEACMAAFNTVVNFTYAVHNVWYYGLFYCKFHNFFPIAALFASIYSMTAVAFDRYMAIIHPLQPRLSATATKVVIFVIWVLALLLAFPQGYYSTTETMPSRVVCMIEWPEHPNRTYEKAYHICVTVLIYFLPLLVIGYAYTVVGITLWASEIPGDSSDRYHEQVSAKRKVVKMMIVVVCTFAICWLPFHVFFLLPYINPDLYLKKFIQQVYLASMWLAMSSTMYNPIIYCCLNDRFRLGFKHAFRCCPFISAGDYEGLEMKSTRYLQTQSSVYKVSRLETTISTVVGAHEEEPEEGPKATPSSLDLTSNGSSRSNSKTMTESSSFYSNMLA

Experiment [9] concerns the target T3, guinea pig NK1 receptor. As to the kind of experiment: cell-based or functional assay. The source holds these as a separate data set.
In experiment [10] the target is T4, µ opioid receptor of the guinea pig …. The experiment is described as follows: cell-based or functional assay. This is another data set of the same source.
In experiment [11] the target is T6, human δ opioid receptor (human, UniProt P41143 1-372).
T6 construct: whole, on cells; membrane preparations of the transfected cells were used; also called hDOR; DOR
T6 sequence (P41143 whole entry, stated change not applied): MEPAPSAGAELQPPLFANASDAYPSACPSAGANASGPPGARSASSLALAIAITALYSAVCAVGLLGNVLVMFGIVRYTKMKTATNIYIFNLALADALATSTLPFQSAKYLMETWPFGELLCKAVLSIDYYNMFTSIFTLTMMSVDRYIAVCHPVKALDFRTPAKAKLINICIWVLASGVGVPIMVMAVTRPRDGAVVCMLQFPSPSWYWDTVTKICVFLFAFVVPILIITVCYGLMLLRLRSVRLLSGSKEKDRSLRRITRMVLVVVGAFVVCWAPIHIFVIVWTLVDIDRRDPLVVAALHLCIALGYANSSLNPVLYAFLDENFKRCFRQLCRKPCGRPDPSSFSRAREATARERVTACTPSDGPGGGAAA
As to the kind of experiment: competition vs [3H]DPDPE, hDOR cell membranes.

In experiment [12] the target is T6, human δ opioid receptor. The experiment is described as follows: competition vs [3H]DPDPE, hDOR cell membranes. The source holds these as a separate data set.
For experiment [13], the target named is T1, rat µ opioid receptor. As to the kind of experiment: cell-based or functional assay. The source holds these as a separate data set.
The target of experiment [14] is T6, human δ opioid receptor. As to the kind of experiment: cell-based or functional assay.
Experiment [15] addresses T5, rat NK1 receptor. The experiment is described as follows: competition vs [3H]Substance P, rNK1 CHO cell membranes. This is another data set of the same source.
For experiment [16], the target named is T7, human NK1 receptor (human, UniProt P25103 1-407).
T7 construct: whole, on cells; Used as membrane preparations of transfected CHO cells; also called hNK1; human neurokinin-1 receptor
As to the kind of experiment: radioligand competition vs [3H]substance P, membranes of hNK1 CHO cells.
T7 sequence (P25103 whole entry): as the sequence (P25103 whole entry) above

Experiment [17] concerns the target guinea pig NK1 receptor (guinea pig, UniProt P30547 1-407). As to the kind of experiment: cell-based or functional assay. This is another data set of the same source.
Target sequence in this assay (P30547 whole entry): as the sequence (P30547 whole entry) above
In experiment [18] the target is µ opioid receptor of the guinea pig isolated ileum (guinea pig, UniProt P97266 1-98). The experiment is described as follows: cell-based or functional assay. The source holds these as a separate data set.
Target sequence in this assay (P97266 whole entry): as the sequence (P97266 whole entry) above
The target of experiment [19] is T8, rat NK1 receptor (rat, UniProt P14600 1-407).
T8 construct: whole, on cells; Used as membrane preparations of transfected CHO cells; also called rNK1; rat neurokinin-1 receptor
The experiment is described as follows: radioligand competition vs [3H]substance P, membranes of rNK1 CHO cells.
T8 sequence (P14600 whole entry): as the sequence (P14600 whole entry) above

For experiment [20], the target named is T5, rat NK1 receptor. As to the kind of experiment: competition vs [3H]Substance P, rNK1 CHO cell membranes. This is another data set of the same source.
Experiment [21] concerns the target T1, rat µ opioid receptor. As to the kind of experiment: cell-based or functional assay. This is another data set of the same source.
Experiment [22] concerns the target T3, guinea pig NK1 receptor. The experiment is described as follows: cell-based or functional assay. The source holds these as a separate data set.
The target in experiment [23] is T6, human δ opioid receptor. The experiment is described as follows: cell-based or functional assay. The source holds these as a separate data set.
Experiment [24] deals with T4, µ opioid receptor of the guinea pig …. As to the kind of experiment: cell-based or functional assay. This is another data set of the same source.
The target of experiment [25] is T2, human NK1 receptor. As to the kind of experiment: competition vs [3H]Substance P, hNK1 CHO cell membranes. The source holds these as a separate data set.
The target of experiment [26] is T6, human δ opioid receptor. The experiment is described as follows: competition vs [3H]DPDPE, hDOR cell membranes. This is another data set of the same source.
Experiment [27] concerns the target T1, rat µ opioid receptor. The experiment is described as follows: competition vs [3H]DAMGO, rMOR cell membranes. The source holds these as a separate data set.

Five molecules from patent US8026218 (UNIVERSITY OF ARIZONA, dated 2011) can be followed below.

Like-named read-outs stand apart in the source and are kept apart here. Square brackets hold non-standard residues; d marks the D form. Ends that are not written are not given here. * marks the point of attachment. Glc = O-glucosyl on Ser side chain (Ser(OGlu)/Ser(OGlc)); NH(3,5-(CF3)2-benzyl) = FC(F)(F)c1cc(CN*)cc(C(F)(F)F)c1; OBzl(3,5-(CF3)2) = FC(F)(F)c1cc(CO*)cc(C(F)(F)F)c1; NH‑Bn(CF3)2 = C-terminal Bn(CF3)2 amide; Dmt = Cc1cc(O)cc(C)c1C[C@H](N)C(=O)O; Nle = CCCC[C@H](N)C(=O)O; NHBn = c1ccc(CN*)cc1

T1 sequence (P33535 whole entry): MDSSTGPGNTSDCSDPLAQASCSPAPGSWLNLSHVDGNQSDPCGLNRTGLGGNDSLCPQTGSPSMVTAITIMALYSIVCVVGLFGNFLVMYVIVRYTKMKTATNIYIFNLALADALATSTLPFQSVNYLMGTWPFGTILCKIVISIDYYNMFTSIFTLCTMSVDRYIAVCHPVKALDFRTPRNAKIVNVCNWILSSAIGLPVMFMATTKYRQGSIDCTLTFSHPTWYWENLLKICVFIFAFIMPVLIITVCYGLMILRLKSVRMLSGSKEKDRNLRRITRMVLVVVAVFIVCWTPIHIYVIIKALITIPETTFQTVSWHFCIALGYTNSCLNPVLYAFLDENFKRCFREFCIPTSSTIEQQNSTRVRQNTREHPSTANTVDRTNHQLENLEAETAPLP

B1: DmtDAlaGlyPheNleProSer(OGlu)TrpNHBn(CF3)2 (peptide)
peptide: [Dmt][dA]GF[Nle]PS(Glc)W-{NH(3,5-(CF3)2-benzyl)}
notes: also called TY056
For the molecule B1, in the experiment with rat µ opioid receptor [1], the Ki amounted to 1.9 nM. Further, in the experiment with rat µ opioid receptor [2], the “GTP binding EC50” value worked out at 44.9 nM and the “GTP binding Emax” value was found to be 66%. For the same molecule, the Ki with human NK1 receptor [3] was 1.7 pM.

B2: TyrDAlaGlyPheMetProLeuTrpOBn(CF3)2 (peptide)
peptide: Y[dA]GFMPLW-{OBzl(3,5-(CF3)2)}
notes: also called TY005
On to B2, for which the “GPI Substance P antagonist Ke” value in the experiment with guinea pig NK1 receptor [4] was 25 nM. In addition, the “GPI (µ) IC50” value in experiment [5] was found to be 360 nM. Moreover, the “GPI/LMMP SP antagonist Ke” value with guinea pig NK1 receptor [6] turned out to be 24.7 nM. The “GPI/LMMP IC50” value in experiment [7] and in experiment [10] was 359 nM throughout. Further, the Ki in the experiment with rat NK1 receptor [8] turned out to be 0.2 nM; with human δ opioid receptor [11], 2.8 nM; in the experiment with human δ opioid receptor [12], 2.8 nM. Besides, the “GPI/LMMP Substance P antagonist Ke” value with guinea pig NK1 receptor [9] is 24.7 nM. The entries for the “GTP binding Emax” value with rat µ opioid receptor [13] and with human δ opioid receptor [14] were 45.6% and 47.6%, respectively. For the same molecule, the “GTP binding EC50” value with human δ opioid receptor [14] is 2.9 nM. This molecule had an IC50 in the experiment with rat NK1 receptor [15] of 6.4 nM.

B3: TyrDAlaGlyPheMetProLeuTrpNHBn (peptide)
peptide: Y[dA]GFMPLW-NHBn
notes: also called TY025
B3: in the experiment with guinea pig NK1 receptor [4], the “GPI Substance P antagonist Ke” value is 9.9 nM. Also, the “GPI (µ) IC50” value in [5] worked out at 61 nM. Also, the “GPI/LMMP Substance P antagonist Ke” value with guinea pig NK1 receptor [9] came to 9.9 nM. The “GPI/LMMP IC50” value in experiment [10] is 61.1 nM. In the experiment with human δ opioid receptor [11], this molecule gave a Ki of 0.44 nM.

B4: TyrDAlaGlyPheNleProLeuSer(OGlu)TrpNHBn(CF3)2 (TY055) (peptide)
peptide: Y[dA]GF[Nle]PLS(Glc)W-{NH‑Bn(CF3)2}
B4: the values for the Ki in the experiment with human NK1 receptor [16] and in the experiment with rat NK1 receptor [19] were 0.052 nM and 33.9 nM, respectively. In the experiment with guinea pig NK1 receptor [17], the “GPI/LMMP SP antagonist Ke” value is 8.4 nM. In addition, the “GPI/LMMP opioid(mu) agonist IC50” value in [18] amounted to 670 nM.

B5: TyrDAlaGlyPheSer(OGlu)ProLeuTrpNHBn(CF3)2 (peptide)
peptide: Y[dA]GFS(Glc)PLW-{NH(3,5-(CF3)2-benzyl)}
notes: also called TY042
Take B5: the Ki with rat NK1 receptor [20] amounted to 1.5 nM; with human NK1 receptor [25] it was 0.27 pM; in the experiment with human δ opioid receptor [26] it was 58.5 nM; in the experiment with rat µ opioid receptor [27], 256 nM. For the same molecule, the entries for the “GTP binding EC50” value with rat µ opioid receptor [21] and with human δ opioid receptor [23] were 176 nM and 51.9 nM, respectively. In addition, the figures for the “GTP binding Emax” value in the experiment with rat µ opioid receptor [21] and in the experiment with human δ opioid receptor [23] were 28% and 47%, respectively. The “GPI/LMMP SP antagonist Ke” value with guinea pig NK1 receptor [22] came out at 2.83 nM. Further, the “GPI/LMMP IC50” value in experiment [24] was 1890 nM.
